Source: article PMC7614096, “Head-to-tail polymerization by VEL proteins underpins cold-induced Polycomb silencing in flowering control” (Cell Reports, 2022)

B1: Lip-VEL1VEL (residues 589–692), wild type [Arabidopsis thaliana] / itself (parent)
chain: SDEIKNRQARIEISMKDNCNNGDHSANGGTESGLEHCVKIIRQLECSGHIDKNFRQKFLTWYSLRATSQEIRVVKIFIDTFIDDPMALAEQLIDTFDDRVSIKR
B2: Lip-VIN3VEL (residues 500–603), wild type [Arabidopsis thaliana] / itself (parent)
chain: GKQGGNKRFKSRTVSLNEKPEINNAANGVGDKDLGHIVKTIRCLEEEGHIDKSFRERFLTWYSLRATHREVRVVKIFVETFMEDLSSLGQQLVDTFSESILSKR

Experiments:
Assay in all cases: SEC-MALS
itself [1] = variants of: B1; settings: with itself; 255 µM sample; predicted molecular mass 23.4 kDa
itself [2] = variants of: B1; settings: with itself; 255 µM sample; predicted molecular mass 23.4 kDa; remark: listed apart in the source
itself [3] = variants of: B2; settings: with itself; predicted molecular mass 20.3 kDa; concentration not given
itself [4] = variants of: B2; settings: with itself; predicted molecular mass 20.3 kDa; concentration not given; remark: listed apart in the source

Variant	screen value (itself [1]) [molecules]	screen value (itself [2]) [kDa]	screen value (itself [3]) [molecules]	screen value (itself [4]) [kDa]
chain 1 L64D			1.6	33.5
chain 1 R42H			1.2	23.8

Now from value to variant:

screen value (itself [1]) [molecules]	screen value (itself [2]) [kDa]	screen value (itself [3]) [molecules]	screen value (itself [4]) [kDa]	Variant
1.1	25			chain 1 R55A K57D
		1.2	24.6	chain 1 R57D
